The text below walks through data of publication PMC3017781, “Structure-function relationships of wheat flavone O-methyltransferase: Homology modeling and site-directed mutagenesis” (BMC Plant Biology, 2010).

Positions count from the first letter of the chain named. In names and notes the source's numbering stands.

B1: TaOMT2 (Triticum aestivum) (protein)
chain: MGSIAAGADEDACMYALQLVSSSILPMTLKNAIELGLLETLMAAGGKFLTPAEVAAKLPSAANPEAPDMVDRMLRLLASYNVVSCRTEDGKDGRLSRRYGAAPVCKYLTPNEDGVSMSALALMNQDKVLMESWYYLKDAVLDGGIPFNKAYGMSAFEYHGTDPRFNRVFNEGMKNHSIIITKKLLESYKGFEGLGTLVDVGGGVGATVAAITAHYPTIKGINFDLPHVISEAPPFPGVTHVGGDMFQKVPSGDAILMKWILHDWSDEHCATLLKNCYDALPAHGKVVLVECILPVNPEATPKAQGVFHVDMIMLAHNPGGRERYEREFEALAKGAGFAAMKTTYIYANAWAIEFTK
notes: full length, 356 residues, vector pET200/D-TOPO, expressed in E. coli BL21 (DE3), Ni-NTA purified, tag removal not mentioned; dimer in solution (monomers also active)
B2: TaOMT2 (Triticum aestivum; V309I) (protein)
chain: B1 chain with V309I
notes: as for B1
B3: TaOMT2 (Triticum aestivum; W259A) (protein)
chain: B1 chain with W259A
B4: TaOMT2 (Triticum aestivum; W259Y) (protein)
chain: B1 chain with W259Y
B5: TaOMT2 (Triticum aestivum; G305S) (protein)
chain: B1 chain with G305S
B6: TaOMT2 (Triticum aestivum; E322I) (protein)
chain: B1 chain with E322I
B7: TaOMT2 (Triticum aestivum; D263N) (protein)
chain: B1 chain with D263N

In general, Km refers to the substrate concentration at which the rate is half of its maximum.

Substrate in one data set: O=c1cc(-c2cc(O)c(O)c(O)c2)oc2cc(O)cc(O)c12
The experiment in a line: purified protein. To be noted: co-substrate SAM (AdoMet) 1 mM, 30°C, 15 min.
In the case of B1, the Km came out at 59.51 ± 0.79 µM.
As to B2, the Km was 101.08 ± 9.68 µM.

The data set is the same for the next values; noted with them: co-substrate SAM, saturating.
In the case of B3, the Km turned out to be 131.0 µM.
The same measure, in the same setting: the same measure for B4: 170.1 µM; for B5: 118.41 µM.
The same measure, in the same setting: the value for B6 was 193.17 µM; that for B7 was 128.2 µM.

Substrate in the next data set: COc1cc(/C=C/C(=O)O)cc(O)c1O
Put plainly: radiometric methyltransferase assay with [3H]SAM, Lineweaver-Burk. Particulars: co-substrate SAM (AdoMet) 1 mM, 30°C, 15 min. It is filed as biochemical, Triticum aestivum.
Excerpt: radiometric methyltransferase assay with [3H]SAM, Lineweaver-Burk on TaOMT2
Regarding B1, the Michaelis constant (Km) turned out to be 270.98 ± 11.51 µM.
Same read-out and setting: the same measure for B2: 18.24 ± 1.72 µM.
